The values that follow come from US20150045540A1 (published 2015).

In experiment [1] the target is T1, Placenta Growth Factor (PlGF), human (human, UniProt P49763 21-149).
T1 chain: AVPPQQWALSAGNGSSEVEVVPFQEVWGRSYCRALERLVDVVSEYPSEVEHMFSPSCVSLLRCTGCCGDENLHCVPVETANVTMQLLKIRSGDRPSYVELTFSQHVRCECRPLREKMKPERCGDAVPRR
Put plainly: ELISA. On the technique in general: An ELISA detects its analyte on a solid surface through an enzyme-linked reagent.

The target of experiment [2] is Hepatocyte Growth Factor (HGF), human (human, UniProt P14210 32-728). Put plainly: ELISA.
Sequence of Hepatocyte Growth Factor (HGF), human (P14210 32-728): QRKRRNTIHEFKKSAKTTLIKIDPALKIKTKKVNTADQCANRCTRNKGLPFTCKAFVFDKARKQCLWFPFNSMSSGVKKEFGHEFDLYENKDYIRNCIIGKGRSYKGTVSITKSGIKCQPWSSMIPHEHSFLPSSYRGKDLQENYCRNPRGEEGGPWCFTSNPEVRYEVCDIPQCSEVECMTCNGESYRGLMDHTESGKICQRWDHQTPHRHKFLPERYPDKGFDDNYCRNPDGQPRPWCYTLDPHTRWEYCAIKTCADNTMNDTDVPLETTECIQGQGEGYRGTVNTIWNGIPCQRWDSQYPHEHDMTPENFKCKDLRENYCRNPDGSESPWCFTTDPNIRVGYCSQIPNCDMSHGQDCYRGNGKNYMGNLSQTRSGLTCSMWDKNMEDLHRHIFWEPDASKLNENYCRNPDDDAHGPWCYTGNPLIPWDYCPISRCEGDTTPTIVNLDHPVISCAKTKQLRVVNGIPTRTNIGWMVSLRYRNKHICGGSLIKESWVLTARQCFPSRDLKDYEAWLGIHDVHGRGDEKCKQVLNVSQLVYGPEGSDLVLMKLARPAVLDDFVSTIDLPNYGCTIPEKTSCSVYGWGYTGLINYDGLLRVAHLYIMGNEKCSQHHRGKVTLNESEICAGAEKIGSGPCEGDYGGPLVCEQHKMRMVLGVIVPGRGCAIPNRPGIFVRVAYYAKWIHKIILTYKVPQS

One may read the EC50 as the concentration at which the effect is half-maximal.

B1: HC 4/SLC 7 (antibody)
chain 1: GQGTLVTVSSASTKQPVLHQPPAMSSALGTTIRLTCTLRNDHDIGVYSVYWYQQRPGHPPRFLLRYFSQSDKSQGPQVPPRFSGSKDVARNRGYLSISELQPEDEAMYYCAMGARSRCWPRGFQSKHNSVTHVFGSGTQLTVLSQPKATPSVTLFPPSSEELQANKATLVCLMNDFYPGILTVTWKADGTPITQGVEMTTPSKQSNNKYAASSYLSLTPEQWRSRRSYSCQVMHEGSTVEKTVAPAECS
chain 2: MSWAPVLLMLFVYCTGCGPQPVLHQPPAMSSALGTTIRLTCTLRNDHDIGVYSVYWYQQRPGHPPRFLLRYFSQSDKSQGPQVPPRFSGSKDVARNRGYLSISVTHVFGSGTQLTVLSQPKATPQVQLVQ
Turning to B1, the EC50 in experiment [1] was 0.161 nM; in experiment [2], 0.059 nM.

B2: HC 5/SLC 7 (antibody)
chain 1: GQGTLVTVSSASTKGQPVLHQPPAMSSALGTTIRLTCTLRNDHDIGVYSVYWYQQRPGHPPRFLLRYFSQSDKSQGPQVPPRFSGSKDVARNRGYLSISELQPEDEAMYYCAMGARSRCWPRGFQSKHNSVTHVFGSGTQLTVLSQPKATPSVTLFPPSSEELQANKATLVCLMNDFYPGILTVTWKADGTPITQGVEMTTPSKQSNNKYAASSYLSLTPEQWRSRRSYSCQVMHEGSTVEKTVAPAECS
chain 2: MSWAPVLLMLFVYCTGCGPQPVLHQPPAMSSALGTTIRLTCTLRNDHDIGVYSVYWYQQRPGHPPRFLLRYFSQSDKSQGPQVPPRFSGSKDVARNRGYLSISVTHVFGSGTQLTVLSQPKATPQVQLVQ
As for B2, the results for the EC50 in experiment [1] and in experiment [2] were 0.129 nM and 0.056 nM, respectively.

B3: HC 3/SLC 7 (antibody)
chain 1: GQGTLVTVSSASTQPVLHQPPAMSSALGTTIRLTCTLRNDHDIGVYSVYWYQQRPGHPPRFLLRYFSQSDKSQGPQVPPRFSGSKDVARNRGYLSISELQPEDEAMYYCAMGARSRCWPRGFQSKHNSVTHVFGSGTQLTVLSQPKATPSVTLFPPSSEELQANKATLVCLMNDFYPGILTVTWKADGTPITQGVEMTTPSKQSNNKYAASSYLSLTPEQWRSRRSYSCQVMHEGSTVEKTVAPAECS
chain 2: MSWAPVLLMLFVYCTGCGPQPVLHQPPAMSSALGTTIRLTCTLRNDHDIGVYSVYWYQQRPGHPPRFLLRYFSQSDKSQGPQVPPRFSGSKDVARNRGYLSISVTHVFGSGTQLTVLSQPKATPQVQLVQ
For the molecule B3, the EC50 came out at 0.159 nM in experiment [1] and 0.054 nM in experiment [2].

B4: HC 10/SLC 9 (antibody)
chain 1: GQGTLVTVSSASTKGPSVFPQPVLHQPPAMSSALGTTIRLTCTLRNDHDIGVYSVYWYQQRPGHPPRFLLRYFSQSDKSQGPQVPPRFSGSKDVARNRGYLSISELQPEDEAMYYCAMGARSRCWPRGFQSKHNSVTHVFGSGTQLTVLSQPKATPSVTLFPPSSEELQANKATLVCLMNDFYPGILTVTWKADGTPITQGVEMTTPSKQSNNKYAASSYLSLTPEQWRSRRSYSCQVMHEGSTVEKTVAPAECS
chain 2: MSWAPVLLMLFVYCTGCGPQPVLHQPPAMSSALGTTIRLTCTLRNDHDIGVYSVYWYQQRPGHPPRFLLRYFSQSDKSQGPQVPPRFSGSKDVARNRGYLSISVTHVFGSGTQLTVLSQPKATPSVQVQLVQ
Consider B4, for which the values for the EC50 in experiment [1] and in experiment [2] were 0.039 nM and 0.053 nM, respectively.

B5: HC 7/SLC 9 (antibody)
chain 1: GQGTLVTVSSASTKGPSQPVLHQPPAMSSALGTTIRLTCTLRNDHDIGVYSVYWYQQRPGHPPRFLLRYFSQSDKSQGPQVPPRFSGSKDVARNRGYLSISELQPEDEAMYYCAMGARSRCWPRGFQSKHNSVTHVFGSGTQLTVLSQPKATPSVTLFPPSSEELQANKATLVCLMNDFYPGILTVTWKADGTPITQGVEMTTPSKQSNNKYAASSYLSLTPEQWRSRRSYSCQVMHEGSTVEKTVAPAECS
chain 2: MSWAPVLLMLFVYCTGCGPQPVLHQPPAMSSALGTTIRLTCTLRNDHDIGVYSVYWYQQRPGHPPRFLLRYFSQSDKSQGPQVPPRFSGSKDVARNRGYLSISVTHVFGSGTQLTVLSQPKATPSVQVQLVQ
Consider B5, for which the values for the EC50 in experiment [1] and in experiment [2] were 0.057 nM and 0.048 nM, respectively.

B6: HC 2/SLC 9 (antibody)
chain 1: GQGTLVTVSSASQPVLHQPPAMSSALGTTIRLTCTLRNDHDIGVYSVYWYQQRPGHPPRFLLRYFSQSDKSQGPQVPPRFSGSKDVARNRGYLSISELQPEDEAMYYCAMGARSRCWPRGFQSKHNSVTHVFGSGTQLTVLSQPKATPSVTLFPPSSEELQANKATLVCLMNDFYPGILTVTWKADGTPITQGVEMTTPSKQSNNKYAASSYLSLTPEQWRSRRSYSCQVMHEGSTVEKTVAPAECS
chain 2: MSWAPVLLMLFVYCTGCGPQPVLHQPPAMSSALGTTIRLTCTLRNDHDIGVYSVYWYQQRPGHPPRFLLRYFSQSDKSQGPQVPPRFSGSKDVARNRGYLSISVTHVFGSGTQLTVLSQPKATPSVQVQLVQ
With B6, the EC50 in experiment [1] is 0.195 nM; in experiment [2] it was 0.063 nM.

B7: HC 2/SLC 3 (antibody)
chain 1: GQGTLVTVSSASQPVLHQPPAMSSALGTTIRLTCTLRNDHDIGVYSVYWYQQRPGHPPRFLLRYFSQSDKSQGPQVPPRFSGSKDVARNRGYLSISELQPEDEAMYYCAMGARSRCWPRGFQSKHNSVTHVFGSGTQLTVLSQPKATPSVTLFPPSSEELQANKATLVCLMNDFYPGILTVTWKADGTPITQGVEMTTPSKQSNNKYAASSYLSLTPEQWRSRRSYSCQVMHEGSTVEKTVAPAECS
chain 2: MSWAPVLLMLFVYCTGCGPQPVLHQPPAMSSALGTTIRLTCTLRNDHDIGVYSVYWYQQRPGHPPRFLLRYFSQSDKSQGPQVPPRFSGSKDVARNRGYLSISVTHVFGSGTQLTVLSQPQVQLVQ
On to B7, for which the results for the EC50 in experiment [1] and in experiment [2] were 0.046 nM and 0.058 nM, respectively.

B8: HC 2/SLC 8 (antibody)
chain 1: GQGTLVTVSSASQPVLHQPPAMSSALGTTIRLTCTLRNDHDIGVYSVYWYQQRPGHPPRFLLRYFSQSDKSQGPQVPPRFSGSKDVARNRGYLSISELQPEDEAMYYCAMGARSRCWPRGFQSKHNSVTHVFGSGTQLTVLSQPKATPSVTLFPPSSEELQANKATLVCLMNDFYPGILTVTWKADGTPITQGVEMTTPSKQSNNKYAASSYLSLTPEQWRSRRSYSCQVMHEGSTVEKTVAPAECS
chain 2: MSWAPVLLMLFVYCTGCGPQPVLHQPPAMSSALGTTIRLTCTLRNDHDIGVYSVYWYQQRPGHPPRFLLRYFSQSDKSQGPQVPPRFSGSKDVARNRGYLSISVTHVFGSGTQLTVLSQPKATPSQVQLVQ
For the molecule B8, the EC50 in experiment [1] was found to be 0.119 nM; in experiment [2], 0.046 nM.

B9: HC 6/SLC 15 (antibody)
chain 1: GQGTLVTVSSASTKGPQPVLHQPPAMSSALGTTIRLTCTLRNDHDIGVYSVYWYQQRPGHPPRFLLRYFSQSDKSQGPQVPPRFSGSKDVARNRGYLSISELQPEDEAMYYCAMGARSRCWPRGFQSKHNSVTHVFGSGTQLTVLSQPKATPSVTLFPPSSEELQANKATLVCLMNDFYPGILTVTWKADGTPITQGVEMTTPSKQSNNKYAASSYLSLTPEQWRSRRSYSCQVMHEGSTVEKTVAPAECS
chain 2: MSWAPVLLMLFVYCTGCGPQPVLHQPPAMSSALGTTIRLTCTLRNDHDIGVYSVYWYQQRPGHPPRFLLRYFSQSDKSQGPQVPPRFSGSKDVARNRGYLSISVTHVFGSGTQLTVLSQPKATPSVTGGGGSQVQLVQ
With B9, the EC50 stood at 0.046 nM in experiment [1] and 0.05 nM in experiment [2].

B10: HC 6/SLC 8 (antibody)
chain 1: GQGTLVTVSSASTKGPQPVLHQPPAMSSALGTTIRLTCTLRNDHDIGVYSVYWYQQRPGHPPRFLLRYFSQSDKSQGPQVPPRFSGSKDVARNRGYLSISELQPEDEAMYYCAMGARSRCWPRGFQSKHNSVTHVFGSGTQLTVLSQPKATPSVTLFPPSSEELQANKATLVCLMNDFYPGILTVTWKADGTPITQGVEMTTPSKQSNNKYAASSYLSLTPEQWRSRRSYSCQVMHEGSTVEKTVAPAECS
chain 2: MSWAPVLLMLFVYCTGCGPQPVLHQPPAMSSALGTTIRLTCTLRNDHDIGVYSVYWYQQRPGHPPRFLLRYFSQSDKSQGPQVPPRFSGSKDVARNRGYLSISVTHVFGSGTQLTVLSQPKATPSQVQLVQ
In the case of B10, the EC50 worked out at 0.073 nM in experiment [1] and 0.059 nM in experiment [2].

B11: HC 5/SLC 15 (antibody)
chain 1: GQGTLVTVSSASTKGQPVLHQPPAMSSALGTTIRLTCTLRNDHDIGVYSVYWYQQRPGHPPRFLLRYFSQSDKSQGPQVPPRFSGSKDVARNRGYLSISELQPEDEAMYYCAMGARSRCWPRGFQSKHNSVTHVFGSGTQLTVLSQPKATPSVTLFPPSSEELQANKATLVCLMNDFYPGILTVTWKADGTPITQGVEMTTPSKQSNNKYAASSYLSLTPEQWRSRRSYSCQVMHEGSTVEKTVAPAECS
chain 2: MSWAPVLLMLFVYCTGCGPQPVLHQPPAMSSALGTTIRLTCTLRNDHDIGVYSVYWYQQRPGHPPRFLLRYFSQSDKSQGPQVPPRFSGSKDVARNRGYLSISVTHVFGSGTQLTVLSQPKATPSVTGGGGSQVQLVQ
As for B11, the EC50 in experiment [1] was 0.049 nM; in experiment [2] it was approximately 0.041 nM.

B12: HC 7/SLC 4 (antibody)
chain 1: GQGTLVTVSSASTKGPSQPVLHQPPAMSSALGTTIRLTCTLRNDHDIGVYSVYWYQQRPGHPPRFLLRYFSQSDKSQGPQVPPRFSGSKDVARNRGYLSISELQPEDEAMYYCAMGARSRCWPRGFQSKHNSVTHVFGSGTQLTVLSQPKATPSVTLFPPSSEELQANKATLVCLMNDFYPGILTVTWKADGTPITQGVEMTTPSKQSNNKYAASSYLSLTPEQWRSRRSYSCQVMHEGSTVEKTVAPAECS
chain 2: MSWAPVLLMLFVYCTGCGPQPVLHQPPAMSSALGTTIRLTCTLRNDHDIGVYSVYWYQQRPGHPPRFLLRYFSQSDKSQGPQVPPRFSGSKDVARNRGYLSISVTHVFGSGTQLTVLSQPKQVQLVQ
Take B12: the EC50 in experiment [1] was determined as 0.204 nM; in experiment [2], 0.065 nM.

B13: HC 7/SLC 5 (antibody)
chain 1: GQGTLVTVSSASTKGPSQPVLHQPPAMSSALGTTIRLTCTLRNDHDIGVYSVYWYQQRPGHPPRFLLRYFSQSDKSQGPQVPPRFSGSKDVARNRGYLSISELQPEDEAMYYCAMGARSRCWPRGFQSKHNSVTHVFGSGTQLTVLSQPKATPSVTLFPPSSEELQANKATLVCLMNDFYPGILTVTWKADGTPITQGVEMTTPSKQSNNKYAASSYLSLTPEQWRSRRSYSCQVMHEGSTVEKTVAPAECS
chain 2: MSWAPVLLMLFVYCTGCGPQPVLHQPPAMSSALGTTIRLTCTLRNDHDIGVYSVYWYQQRPGHPPRFLLRYFSQSDKSQGPQVPPRFSGSKDVARNRGYLSISVTHVFGSGTQLTVLSQPKAQVQLVQ
As to B13, the figures for the EC50 in experiment [1] and in experiment [2] were 0.283 nM and 0.056 nM, respectively.
